pSTAT5α levels in CD4+ cells and pSTAT5α levels in CD8+ cells data for 69 substances are collected here from patent publication US20230340054A1.

For the experiment, the target named is IL-2 receptor on the cell surface (high and intermediate affinity receptors on human PBMC subsets). The experiment is described as follows: cell-based or functional assay.

As for IgG fusion IL-2 mutein S87E, the pSTAT5α levels in CD4+ cells was 1 and the pSTAT5α levels in CD8+ cells turned out to be 0.825.

In turn, IgG fusion IL-2 mutein T111W registered a pSTAT5α levels in CD4+ cells of 1.58 and a pSTAT5α levels in CD8+ cells of 1.15.

The substance IgG fusion IL-2 mutein H16R gave a pSTAT5α levels in CD4+ cells of 1.4 and a pSTAT5α levels in CD8+ cells of 1.63.

Substance IgG fusion IL-2 mutein E68Q gave a pSTAT5α levels in CD4+ cells of 2 and a pSTAT5α levels in CD8+ cells of 1.4.

On to IgG fusion IL-2 mutein E15T, for which the pSTAT5α levels in CD4+ cells worked out at 3.06 and the pSTAT5α levels in CD8+ cells came out at 1.79.

In turn, IgG fusion IL-2 mutein K48I gave a pSTAT5α levels in CD4+ cells of 0.944 and a pSTAT5α levels in CD8+ cells of 0.868.

Substance IgG fusion IL-2 mutein E15S returned a pSTAT5α levels in CD4+ cells of 1.66 and a pSTAT5α levels in CD8+ cells of 0.932.

IgG fusion IL-2 mutein D109H came in with a pSTAT5α levels in CD4+ cells of 1.01 and a pSTAT5α levels in CD8+ cells of 1.1.

In turn, IgG fusion IL-2 mutein E68Y had a pSTAT5α levels in CD4+ cells of 2.6 and a pSTAT5α levels in CD8+ cells of 1.28.

Regarding IgG fusion IL-2 mutein F42M, the pSTAT5α levels in CD4+ cells was 1.98 and the pSTAT5α levels in CD8+ cells stood at 1.18.

Turning to IgG fusion IL-2 mutein T111S, the pSTAT5α levels in CD4+ cells is 2.47 and the pSTAT5α levels in CD8+ cells was determined as 1.24.

Take IgG fusion IL-2 mutein P34W: the pSTAT5α levels in CD4+ cells was found to be 1.89 and the pSTAT5α levels in CD8+ cells stood at 1.1.

In turn, IgG fusion IL-2 mutein T111Q had a pSTAT5α levels in CD4+ cells of 2.1 and a pSTAT5α levels in CD8+ cells of 1.28.

With IgG fusion IL-2 mutein L12V, the pSTAT5α levels in CD4+ cells is 1.64 and the pSTAT5α levels in CD8+ cells turned out to be 1.03.

Consider IgG fusion IL-2 mutein T111M, for which the pSTAT5α levels in CD4+ cells is 1.74 and the pSTAT5α levels in CD8+ cells was 1.23.

Regarding IgG fusion IL-2 mutein I92F, the pSTAT5α levels in CD4+ cells is 1.77 and the pSTAT5α levels in CD8+ cells came to 1.2.

Substance IgG fusion IL-2 mutein E95Q yielded a pSTAT5α levels in CD4+ cells of 1.56 and a pSTAT5α levels in CD8+ cells of 1.05.

IgG fusion IL-2 mutein E68L gave a pSTAT5α levels in CD4+ cells of 2.01 and a pSTAT5α levels in CD8+ cells of 1.16.

Consider IgG fusion IL-2 mutein L19F, for which the pSTAT5α levels in CD4+ cells turned out to be 1.49 and the pSTAT5α levels in CD8+ cells is 1.06.

Turning to IgG fusion IL-2 mutein N88S, the pSTAT5α levels in CD4+ cells amounted to 1.2 and the pSTAT5α levels in CD8+ cells was 1.04.

In the case of IgG fusion IL-2 mutein H16K, the pSTAT5α levels in CD4+ cells turned out to be 1.05 and the pSTAT5α levels in CD8+ cells amounted to 1.09.

IgG fusion IL-2 mutein H16Y displayed a pSTAT5α levels in CD4+ cells of 1.75 and a pSTAT5α levels in CD8+ cells of 1.21.

IgG fusion IL-2 mutein N71W: the pSTAT5α levels in CD4+ cells was 1.58 and the pSTAT5α levels in CD8+ cells turned out to be 1.02.

The substance IgG fusion IL-2 mutein E95T showed a pSTAT5α levels in CD4+ cells of 1.64 and a pSTAT5α levels in CD8+ cells of 1.02.

The substance IgG fusion IL-2 mutein K48S returned a pSTAT5α levels in CD4+ cells of 2.23 and a pSTAT5α levels in CD8+ cells of 1.16.

As for IgG fusion IL-2 mutein P65E, the pSTAT5α levels in CD4+ cells came to 1.51 and the pSTAT5α levels in CD8+ cells amounted to 1.05.

As to IgG fusion IL-2 mutein L19I, the pSTAT5α levels in CD4+ cells turned out to be 2.22 and the pSTAT5α levels in CD8+ cells came out at 1.04.

Take IgG fusion IL-2 mutein E68F: the pSTAT5α levels in CD4+ cells was found to be 2.19 and the pSTAT5α levels in CD8+ cells was found to be 0.946.

As to IgG fusion IL-2 mutein E61W, the pSTAT5α levels in CD4+ cells was 1.3 and the pSTAT5α levels in CD8+ cells came out at 1.18.

IgG fusion IL-2 mutein L12Y registered a pSTAT5α levels in CD4+ cells of 1.3 and a pSTAT5α levels in CD8+ cells of 1.01.

For the substance IgG fusion IL-2 mutein I92Y, the pSTAT5α levels in CD4+ cells is 1.94 and the pSTAT5α levels in CD8+ cells amounted to 1.12.

Regarding IgG fusion IL-2 mutein D109W, the pSTAT5α levels in CD4+ cells is 1.53 and the pSTAT5α levels in CD8+ cells stood at 1.05.

IgG fusion IL-2 mutein E95N yielded a pSTAT5α levels in CD4+ cells of 0.981 and a pSTAT5α levels in CD8+ cells of 1.05.

On to IgG fusion IL-2 mutein D20N, for which the pSTAT5α levels in CD4+ cells amounted to 2.23 and the pSTAT5α levels in CD8+ cells came out at 1.5.

For IgG fusion IL-2 mutein D109K, the pSTAT5α levels in CD4+ cells came out at 1.77 and the pSTAT5α levels in CD8+ cells was determined as 1.32.

Turning to IgG fusion IL-2 mutein L12I, the pSTAT5α levels in CD4+ cells was 2.35 and the pSTAT5α levels in CD8+ cells stood at 1.59.

Consider IgG fusion IL-2 mutein L72F, for which the pSTAT5α levels in CD4+ cells worked out at 1.65 and the pSTAT5α levels in CD8+ cells was found to be 0.939.

Substance IgG fusion IL-2 mutein P65Q returned a pSTAT5α levels in CD4+ cells of 1.6 and a pSTAT5α levels in CD8+ cells of 1.13.

Substance IgG fusion IL-2 mutein P34F had a pSTAT5α levels in CD4+ cells of 2.85 and a pSTAT5α levels in CD8+ cells of 1.88.

With IgG fusion IL-2 mutein K35T, the pSTAT5α levels in CD4+ cells was determined as 2.39 and the pSTAT5α levels in CD8+ cells was determined as 1.19.

IgG fusion IL-2 mutein M23L registered a pSTAT5α levels in CD4+ cells of 1.91 and a pSTAT5α levels in CD8+ cells of 1.05.

As for IgG fusion IL-2 mutein E15D, the pSTAT5α levels in CD4+ cells was 1.09 and the pSTAT5α levels in CD8+ cells was determined as 1.01.

In turn, IgG fusion IL-2 mutein P65N came in with a pSTAT5α levels in CD4+ cells of 1.71 and a pSTAT5α levels in CD8+ cells of 1.07.

On to IgG fusion IL-2 mutein L19V, for which the pSTAT5α levels in CD4+ cells stood at 1.31 and the pSTAT5α levels in CD8+ cells is 0.953.

Take IgG fusion IL-2 mutein D84S: the pSTAT5α levels in CD4+ cells was 1.2 and the pSTAT5α levels in CD8+ cells amounted to 1.05.

Regarding IgG fusion IL-2 mutein E68R, the pSTAT5α levels in CD4+ cells stood at 2.36 and the pSTAT5α levels in CD8+ cells stood at 1.22.

In the case of IgG fusion IL-2 mutein D84T, the pSTAT5α levels in CD4+ cells turned out to be 1.21 and the pSTAT5α levels in CD8+ cells was determined as 0.96.

IgG fusion IL-2 mutein T111H yielded a pSTAT5α levels in CD4+ cells of 1.9 and a pSTAT5α levels in CD8+ cells of 1.14.

IgG fusion IL-2 mutein M104H: the pSTAT5α levels in CD4+ cells worked out at 1.01 and the pSTAT5α levels in CD8+ cells stood at 0.989.

Substance IgG fusion IL-2 mutein I92W registered a pSTAT5α levels in CD4+ cells of 1.11 and a pSTAT5α levels in CD8+ cells of 0.986.

With IgG fusion IL-2 mutein E106W, the pSTAT5α levels in CD4+ cells was found to be 1.02 and the pSTAT5α levels in CD8+ cells came out at 1.18.

IgG fusion IL-2 mutein M104I had a pSTAT5α levels in CD4+ cells of 1.25 and a pSTAT5α levels in CD8+ cells of 0.851.

IgG fusion IL-2 mutein E68W returned a pSTAT5α levels in CD4+ cells of 1.96 and a pSTAT5α levels in CD8+ cells of 0.997.

IgG fusion IL-2 mutein K43W yielded a pSTAT5α levels in CD4+ cells of 1.24 and a pSTAT5α levels in CD8+ cells of 1.16.

Turning to IgG fusion IL-2 mutein T111N, the pSTAT5α levels in CD4+ cells was determined as 1.64 and the pSTAT5α levels in CD8+ cells worked out at 1.08.

IgG fusion IL-2 mutein D109R registered a pSTAT5α levels in CD4+ cells of 1.77 and a pSTAT5α levels in CD8+ cells of 1.27.

Consider IgG fusion IL-2 mutein S87T, for which the pSTAT5α levels in CD4+ cells was 2 and the pSTAT5α levels in CD8+ cells is 1.07.

Substance IgG fusion IL-2 mutein P34Y displayed a pSTAT5α levels in CD4+ cells of 1.11 and a pSTAT5α levels in CD8+ cells of 1.29.

For IgG fusion IL-2 mutein E95D, the pSTAT5α levels in CD4+ cells worked out at 1.62 and the pSTAT5α levels in CD8+ cells turned out to be 1.02.

Substance IgG fusion IL-2 mutein I92V gave a pSTAT5α levels in CD4+ cells of 0.981 and a pSTAT5α levels in CD8+ cells of 1.08.

The substance IgG fusion IL-2 mutein P65K gave a pSTAT5α levels in CD4+ cells of 1.59 and a pSTAT5α levels in CD8+ cells of 1.31.

Take IgG fusion IL-2 mutein L72R: the pSTAT5α levels in CD4+ cells worked out at 1.6 and the pSTAT5α levels in CD8+ cells is 0.93.

Substance IgG fusion IL-2 mutein D20T gave a pSTAT5α levels in CD4+ cells of 1.46 and a pSTAT5α levels in CD8+ cells of 1.7.

IgG fusion IL-2 mutein M23I displayed a pSTAT5α levels in CD4+ cells of 1.83 and a pSTAT5α levels in CD8+ cells of 1.16.

For IgG fusion IL-2 mutein D109M, the pSTAT5α levels in CD4+ cells came out at 1.28 and the pSTAT5α levels in CD8+ cells came out at 0.906.

IgG fusion IL-2 mutein D84E displayed a pSTAT5α levels in CD4+ cells of 1.61 and a pSTAT5α levels in CD8+ cells of 0.957.

Consider IgG fusion IL-2 mutein P65R, for which the pSTAT5α levels in CD4+ cells was found to be 1.67 and the pSTAT5α levels in CD8+ cells worked out at 1.15.

In turn, IgG fusion IL-2 mutein K48V came in with a pSTAT5α levels in CD4+ cells of 1.12 and a pSTAT5α levels in CD8+ cells of 1.18.

IgG fusion IL-2 mutein E95S had a pSTAT5α levels in CD4+ cells of 1.47 and a pSTAT5α levels in CD8+ cells of 1.
